From patent US20260167738A1 (published 2026)

How the values were obtained:
[1] = biological target: full-length human CD33 (CD33^FL) (UniProt P20138 18-364); experiment: SPR (Biacore)
[2] = biological target: CD33ΔE2; experiment: SPR (Biacore)

full-length human CD33 (CD33^FL), sequence (P20138 18-364): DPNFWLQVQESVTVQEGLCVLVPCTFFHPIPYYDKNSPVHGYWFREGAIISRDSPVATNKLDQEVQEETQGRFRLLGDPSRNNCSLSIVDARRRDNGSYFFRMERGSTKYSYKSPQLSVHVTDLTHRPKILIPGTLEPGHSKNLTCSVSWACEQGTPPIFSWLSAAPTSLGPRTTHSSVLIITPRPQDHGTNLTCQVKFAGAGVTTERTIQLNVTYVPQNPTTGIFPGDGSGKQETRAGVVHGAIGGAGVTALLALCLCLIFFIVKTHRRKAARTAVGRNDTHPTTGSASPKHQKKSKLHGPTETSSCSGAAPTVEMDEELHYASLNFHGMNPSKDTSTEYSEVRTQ

Row | Kd [1] | Kd [2] | Binder
1 | 4.89 nM |  | 2D3 antibody (antibody, V domains shown) VH: EVQLLESGGGLVQPGGSLSLSCAASGFTFSIYAMSWVRQAPGKGLEWVSAISDSGGTTYYADSVKGRFTISRDNSKNMLYLEMNSLRAEDTAIYYCAKRTRYFNGMDVWGQGTTVTVSS VL: EIVMTQSPATLSLSPGERATLSCRASQSGSSSFLSWYQQKPGQAPRLLIYGASTRATGIPARFSGSGSGTDFTLTISSLQPEDFAVYYCQQDYNLPFTFGPGTKVDIK
2 |  | 0.136 nM | 1H10 (antibody, V domains shown) VH: QVQLVQSGAEVKKPGASVKVSCKGSGYIFTSYDMHWVRQAPGQGLEWMGIIDPSGGSTSYAQKFQGRVTMTRDTSMSTVYMELSSLRSEDTAVYYCTRDYSWSYFDYWGQGTLVTVSS VL: AIQMTQSPSSLSASVGDRVTITCRASQGIRIYLGWYQQKPGKAPKLLIYATSSLQSGVPSRFSGSGSGTDFTLTISSLQPEDFATYYCLQDYNYPWTFGQGTKVEIK
3 | 3.71 nM |  | 1H10 antibody (antibody, V domains shown) VH: QVQLVQSGAEVKKPGASVKVSCKGSGYIFTSYDMHWVRQAPGQGLEWMGIIDPSGGSTSYAQKFQGRVTMTRDTSMSTVYMELSSLRSEDTAVYYCTRDYSWSYFDYWGQGTLVTVSS VL: AIQMTQSPSSLSASVGDRVTITCRASQGIRIYLGWYQQKPGKAPKLLIYATSSLQSGVPSRFSGSGSGTDFTLTISSLQPEDFATYYCLQDYNYPWTFGQGTKVEIK
